# ± gives the standard deviation.
# Assay: protein stability index of a GFP-peptide fusion (GPS, HEK-293T) (PSI 1-6); higher = more stable
# [1] = treatment: DMSO, c terminus: a fixed tail appended
# [2] = treatment: MLN4924 1 uM, 8 h, c terminus: a fixed tail appended
# 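Also: 24-mer peptide tiles fused after GFP, lentivirally expressed, FACS-sorted into six equal bins by GFP/DsRed ratio, decoded by Illumina sequencing, PSI is the read-weighted mean bin number.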
Sequence,protein stability index [1],protein stability index [2],"protein stability index (treatment: DMSO, c terminus: native)","protein stability index (treatment: MLN4924 1 uM, 8 h, c terminus: native)"
PPPPRSRGPPRGLRGGRGGSGGTR [RBMX],5.11 ± 0.5,4.96 ± 0.32,–,–
EMFLYFEDHGLVTCSADHLIILWK [WDR41],2.76 ± 0.4,2.68 ± 0.67,–,–
LAEWEANPLICPVCTKYNLRITSG [RPAIN],3.35 ± 0.36,3.31 ± 0.36,–,–
DVHHGNGTQHMFEDDPSVLYVSLH [HDAC6],2.97 ± 0.34,2.93 ± 0.31,–,–
TDPGDVPAFLKWLSLASLLVYVAA [SLC2A12],2.37 ± 0.39,2.66 ± 1,–,–
AEVNAVDNEGNSALHIIVQYNRPI [FEM1B],2.48 ± 0.25,2.48 ± 0.23,–,–
TKSHSFRAMCQNGKLVYPSCEEK [CFHR2],–,–,3.813 ± 0.01,4.09 ± 0.12
CLPPEPSPDDPESVKIIFKLPNDS [FAF2],4.76 ± 0.17,4.82 ± 0.13,–,–
LMSGCSSELKNRMEYALNMLLQRC [PLK2],2.04 ± 0.22,2.22 ± 0.29,–,–
RKKEAKRKISSLSFTLEEEEEGGE [FAM50A],5.33 ± 0.41,5.67 ± 0.41,–,–
NLLEKFFEMKKGQCKDALEIYKRF [SNAP91],2.41 ± 0.46,2.69 ± 0.8,–,–
PNGVQLSPAEDFVLVAETTMARIR [APMAP],3.21 ± 0.21,3.5 ± 0.22,–,–
EELTYIIKQDINSLNKQIAQLQDF [STX5],2.61 ± 0.21,2.85 ± 0.26,–,–
LNTRSQAPLLRWVLTLSFLVATVA [HMOX1],2.33 ± 0.46,2.15 ± 0.31,–,–
YQYLHYALFKANRLEKAVAAAYTF [P3H4],2.22 ± 0.17,2.55 ± 0.25,–,–
TTARERPCVRPGVSGSPVTQNHAA [FBF1],4.33 ± 0.23,4.51 ± 0.3,–,–
LTCNNYKNKMMVCQVGGIEALVRT [CTNNB1],2.32 ± 0.38,2.23 ± 0.56,–,–
DKMEGNPICVQIPWDKNPEALAKW [CRY1],4.54 ± 0.094,4.33 ± 0.24,–,–
AGGAGGGVTEEQEGFADGFVKALD [JUNB],5.32 ± 0.17,5.35 ± 0.085,–,–
SKVLSLQDLCCRAVVSCTPVHLVD [RAB40B],3.01 ± 0.17,2.85 ± 0.32,–,–
VSPIQIDGAGRTWQDSDTVKLLVD [TOR1AIP2],3.92 ± 0.11,3.75 ± 0.32,–,–
SLLNKKADGVKPQTNSTKNSAAAT [CAMK2B],4.43 ± 0.055,4.34 ± 0.23,–,–
KTEQQRRREKAVHRLRVQQAALRA [NOP53],3.98 ± 0.42,4.13 ± 0.18,–,–

Sequence,protein stability index [1],protein stability index [2],"protein stability index (treatment: DMSO, c terminus: native)","protein stability index (treatment: MLN4924 1 uM, 8 h, c terminus: native)"
SPVTRTRSLSACNKRVGMYLEGFD [DLC1],3 ± 0.3,3.19 ± 0.3,–,–
YFQSVTSNRWLMVKIFLILIVFFI [STX5],2.85 ± 0.6,2.93 ± 0.49,–,–
DVLKYSYVRLVCKDVRAPSRPAVG [ZSWIM9],2.25 ± 0.26,1.83 ± 0.22,–,–
MAAGSTTLHAVEKLQVRLATKTEP [ELOA2],3.62 ± 0.23,3.61 ± 0.36,–,–
VGTRQNEELPCTCPLCTSDRGSCV [RHOBTB3],4.77 ± 0.27,4.93 ± 0.12,–,–
FEKWEQETAAGKGKGEARARLKRS [SMTNL2],4.87 ± 0.15,5.07 ± 0.21,–,–
QICRAQGLETLFSKAQELGGAGRE [ZSWIM9],3.64 ± 0.23,3.66 ± 0.26,–,–
DKFQWLAGLAPPSLFARAMQVLVT [ANKRD9],2.56 ± 0.44,2.29 ± 0.15,–,–
AASPELSALEEAFRRFAVHGDARA [TPPP],3.73 ± 0.12,3.74 ± 0.26,–,–
DLVLHTNYTATVRGLRGPNLTSPA [TNXB],2.79 ± 0.31,2.71 ± 0.32,–,–
KKQLADETLLKVDLENRCQSLTED [LMNB1],5.13 ± 0.23,5.31 ± 0.076,–,–
ISVQELMGCLGVAKEDGKADTKKR [SMOC2],3.88 ± 0.33,3.92 ± 0.59,–,–
NQNNYRLLSCGKILTGCKNMLFQQ [ACSBG2],2.9 ± 1.2,2.3 ± 0.69,–,–
APDAHFTVDKQNISLWPREPPPKS [CD207],4.73 ± 0.24,4.78 ± 0.27,–,–
TREQLYQAIFHAVDQYLALPDVSL [MCOLN1],3.37 ± 0.54,2.67 ± 0.61,–,–
SLSPSPLGSSAASTALERPSFLSQ [FCHO1],4.09 ± 0.25,3.98 ± 0.19,–,–
DKVRALEEANADLEVKIHDWYQKQ [KRT15],4.4 ± 0.24,4.3 ± 0.36,–,–
SYSQSSNLFRHQRRHNAEKLLNVV [ZNF24],2.58 ± 0.27,2.97 ± 0.41,–,–
SQNIQEDDLQQLQLFTEYGRLAMD [ATL3],4.3 ± 0.27,4.09 ± 0.47,–,–
GGGADTGTGGEEVEALQLSARWLE [FBXO33],4.91 ± 0.41,5.03 ± 0.43,–,–
RQAELLEKRLQEIEELEREAERKI [SRPK2],5.13 ± 0.32,5.18 ± 0.14,–,–
ALEGSALANGRALSAGSPPVPPGW [DLX1],3.59 ± 0.15,3.86 ± 0.17,–,–
DLVQWTRHMEAVKAQLLEQAQGQL [SOAT2],2.62 ± 0.56,2.69 ± 0.24,–,–

Sequence,protein stability index [1],protein stability index [2],"protein stability index (treatment: DMSO, c terminus: native)","protein stability index (treatment: MLN4924 1 uM, 8 h, c terminus: native)"
EDTQRHETYHQQGQCQVLVQRSPW [TCAP],4.03 ± 0.29,3.79 ± 0.17,–,–
MSAAQGWDRNRRRGGGAAGAGGGG [KLHDC10],4.97 ± 0.27,4.92 ± 0.25,–,–
IKRLWKDSGVQACFNRSREYQLND [GNAI1],2.4 ± 0.41,2.44 ± 0.72,–,–
LGGFRHKVTGVEYHNAGTQTVPKR [IQUB],4.03 ± 0.36,4.1 ± 0.3,–,–
ILEDMRCQYEALVENNRRDVEAWF [KRT36],2.49 ± 0.19,2.84 ± 0.45,–,–
GQALLTHLYQSSARRYAGPLHHQT [ELAVL3],2.4 ± 0.14,2.71 ± 0.097,–,–
ALLDQIRQGIQLNKTPGAPESSAL [WAS],3.3 ± 0.16,3.15 ± 0.53,–,–
ETCSCGYYLHPLPAGAEYCSSARH [SCNN1D],3.52 ± 0.36,3.63 ± 0.43,–,–
KQWGPLEREPVRGQCLDSTDQLEF [RTN2],4.45 ± 0.35,4.71 ± 0.2,–,–
FDFDDDGTLNREDLSRLVNCLTGE [CIB1],4.21 ± 0.21,4.29 ± 0.34,–,–
KRKGIKSSIGRLFGKKEKGRLIQL [PPFIA4],2.46 ± 0.31,2.22 ± 0.22,–,–
MKYYIVHLKRHFMFRNHLCLVFEL [DYRK1B],2.9 ± 0.53,2.44 ± 0.63,–,–
EDQEEWHAQVVEELSNFKSQKVLG [ZBED1],5.41 ± 0.21,5.54 ± 0.21,–,–
ELLALETALGGQCVDRQEVAEITK [TCAP],4.15 ± 0.26,4.5 ± 0.24,–,–
CYRENTHQTLKCSALATQYMHCVN [CHCHD3],2.17 ± 0.47,2.26 ± 0.43,–,–
LTLKVCKPQAPQKLDPTLSSCFFI,2.37 ± 0.59,2.3 ± 0.3,–,–
KIRRFNKAKPEPDILEEEKIYAYP [TMEM192],3.27 ± 0.35,3.54 ± 0.52,–,–
NEWRMVASMSKRRCGVGVSVLDDL [KLHL20],2.27 ± 0.52,2.25 ± 0.34,–,–
GAVTASKHSNSPPLVTPPQSPVSP [SMTNL2],5.33 ± 0.25,5.26 ± 0.19,–,–
SNLSTRDASILTEMPTQPGKPLIP [NETO1],4.52 ± 0.18,4.57 ± 0.26,–,–
DKRRDLAHLAAEVEGKCLQSGFEM [TRIM39],3.97 ± 0.18,4.03 ± 0.36,–,–
FSSYNKQDNNCHFDAALVSFINFF [SLC6A17],2.81 ± 0.39,2.64 ± 0.41,–,–
SINALLQAEVLSRQITSPVSGING [HNF4A],2.7 ± 0.13,2.67 ± 0.2,–,–

Sequence,protein stability index [1],protein stability index [2],"protein stability index (treatment: DMSO, c terminus: native)","protein stability index (treatment: MLN4924 1 uM, 8 h, c terminus: native)"
SGNDPFAPSEGSAEAAPELDLFAM [SNAP91],4.83 ± 0.2,4.89 ± 0.23,–,–
AAHRLARRLYHLEGFQRCDVARQL [PSD2],2.21 ± 0.43,2.46 ± 0.46,–,–
PFAYLTVLDLSKSLSAALLTAALL [POMT2],2.98 ± 0.23,3.02 ± 0.16,–,–
LPKELPADAVNLTIPASLDLSPLL [PLAGL1],3.32 ± 0.19,3.48 ± 0.28,–,–
LVCTFSSQVCRVAYEIMQTLHPDA [FUT8],2.95 ± 0.12,3.22 ± 0.55,–,–
LTCVICLNYLVDPVTICCGHSFCR [TRIM43],2.83 ± 0.82,2.91 ± 0.97,–,–
DLAALKQRLEEETRKREDAEHNLV [PRPH],4.96 ± 0.46,4.6 ± 0.4,–,–
DGAISAHKPLLICSCEWMAAMFGG [RHOBTB1],2.25 ± 0.29,2.3 ± 0.15,–,–
EEEEDDLSELPPLEDMGQPPAEEA [FKBP8],5.63 ± 0.2,5.5 ± 0.38,–,–
ELAYLRKNHEEEMLALRGQTGGDV [KRT16],4.26 ± 0.28,4.41 ± 0.17,–,–
PKTGRISVPIDLQKVDQFDPFTVP [PRIM1],3.6 ± 0.33,3.34 ± 0.25,–,–
GEVIHCKLRAMKELSEAAEAQHGP [STX11],4.03 ± 0.38,4.22 ± 0.11,–,–
RQRLAKNDRGDHYHWKDLNRGINI [EFHC1],2.96 ± 0.46,2.99 ± 0.21,–,–
DQGGPVEILPFLYLGSAYHASKCE [DUSP5],2.34 ± 0.27,2.43 ± 0.14,–,–
SLSDQMSVLQSVWMEVLVLGVAQR [ESRRA],3.33 ± 0.35,2.98 ± 0.46,–,–
LRFLHENQLTHTDLKPENILFVNS [CLK3],2.49 ± 0.23,2.86 ± 0.36,–,–
PLSWAPCGPIAGSRQALSFEVPPC,3.21 ± 0.29,3.07 ± 0.19,–,–
EFPEDPEFEAVVRQAELAIERCIF [PI4K2A],2.72 ± 0.1,2.96 ± 0.22,–,–
DYFERNWEPRRDMWVRFRAFEAAR [ZSWIM9],2.56 ± 0.12,2.66 ± 0.32,–,–
VPDREEGGSGGGGGGDEDGSLGSR [SMAD6],5.59 ± 0.24,5.33 ± 0.3,–,–

# From the supplement of paper PMC10567573
